Reference: IntAct's records for PubMed 11854298

B1: Peroxisome proliferator-activated receptor gamma coactivator 1-beta (Homo sapiens), Q86YN6 (parent)
chain: MAGNDCGALLDEELSSFFLNYLADTQGGGSGEEQLYADFPELDLSQLDASDFDSATCFGELQWCPENSETEPNQYSPDDSELFQIDSENEALLAELTKTLDDIPEDDVGLAAFPALDGGDALSCTSASPAPSSAPPSPAPEKPSAPAPEVDELSLLQKLLLATSYPTSSSDTQKEGTAWRQAGLRSKSQRPCVKADSTQDKKAPMMQSQSRSCTELHKHLTSAQCCLQDRGLQPPCLQSPRLPAKEDKEPGEDCPSPQPAPASPRDSLALGRADPGAPVSQEDMQAMVQLIRYMHTYCLPQRKLPPQTPEPLPKACSNPSQQVRSRPWSRHHSKASWAEFSILRELLAQDVLCDVSKPYRLATPVYASLTPRSRPRPPKDSQASPGRPSSVEEVRIAASPKSTGPRPSLRPLRLEVKREVRRPARLQQQEEEDEEEEEEEEEEEKEEEEEWGRKRPGRGLPWTKLGRKLESSVCPVRRSRRLNPELGPWLTFADEPLVPSEPQGALPSLCLAPKAYDVERELGSPTDEDSGQDQQLLRGPQIPALESPCESGCGDMDEDPSCPQLPPRDSPRCLMLALSQSDPTFGKKSFEQTLTVELCGTAGLTPPTTPPYKPTEEDPFKPDIKHSLGKEIALSLPSPEGLSLKATPGAAHKLPKKHPERSELLSHLRHATAQPASQAGQKRPFSCSFGDHDYCQVLRPEGVLQRKVLRSWEPSGVHLEDWPQQGAPWAEAQAPGREEDRSCDAGAPPKDSTLLRDHEIRASLTKHFGLLETALEEEDLASCKSPEYDTVFEDSSSSSGESSFLPEEEEEEGEEEEEDDEEEDSGVSPTCSDHCPYQSPPSKANRQLCSRSRSSSGSSPCHSWSPATRRNFRCESRGPCSDRTPSIRHARKRREKAIGEGRVVYIQNLSSDMSSRELKRRFEVFGEIEECEVLTRNRRGEKYGFITYRCSEHAALSLTKGAALRKRNEPSFQLSYGGLRHFCWPRYTDYDSNSEEALPASGKSKYEAMDFDSLLKEAQQSLH
B2: Estrogen receptor (Homo sapiens), P03372 (parent)
chain: MTMTLHTKASGMALLHQIQGNELEPLNRPQLKIPLERPLGEVYLDSSKPAVYNYPEGAAYEFNAAAAANAQVYGQTGLPYGPGSEAAAFGSNGLGGFPPLNSVSPSPLMLLHPPPQLSPFLQPHGQQVPYYLENEPSGYTVREAGPPAFYRPNSDNRRQGGRERLASTNDKGSMAMESAKETRYCAVCNDYASGYHYGVWSCEGCKAFFKRSIQGHNDYMCPATNQCTIDKNRRKSCQACRLRKCYEVGMMKGGIRKDRRGGRMLKHKRQRDDGEGRGEVGSAGDMRAANLWPSPLMIKRSKKNSLALSLTADQMVSALLDAEPPILYSEYDPTRPFSEASMMGLLTNLADRELVHMINWAKRVPGFVDLTLHDQVHLLECAWLEILMIGLVWRSMEHPGKLLFAPNLLLDRNQGKCVEGMVEIFDMLLATSSRFRMMNLQGEEFVCLKSIILLNSGVYTFLSSTLKSLEEKDHIHRVLDKITDTLIHLMAKAGLTLQQQHQRLAQLLLILSHIRHMSNKGMEHLYSMKCKNVVPLYDLLLEMLDAHRLHAPTSRGGASVEETDQSHLATAGSTSSHSLQKYYITGEAEGFPATV
partner: B1 chain

Variants of: B1
Settings: with esr1_human ESR1, P03372

effect of a mutation on the interaction	Variant
decreasing interaction strength	L155A;L156A;L159A;L160A
decreasing interaction strength	L343A;L346A;L347A
disrupting interaction strength	L155A;L156A;L159A;L160A;L343A;L346A;L347A

Variants of: B2
Settings: with prgc2_human PPARGC1B

effect of a mutation on the interaction	Variant
disrupting interaction strength	MTMTLHTKASGMALLHQIQGNELEPLNRPQLKIPLERPLGEVYLDSSKPAVYNYPEGAAYEFNAAAAANAQVYGQTGLPYGPGSEAAAFGSNGLGGFPPLNSVSPSPLMLLHPPPQLSPFLQPHGQQVPYYLENEPSGYTVREAGPPAFYRPNSDNRRQGGRERLASTNDKGSMAMESAKETRYCAVCNDYASGYHYGVWSCEGCKAFFKRSIQGHNDYMCPATNQCTIDKNRRKSCQACRLRKCYEVGMMKGGIRKDRRGGRMLKHKRQRDDGEGRGEVGSAGDMRAANLWPSPLMIKRSKKNSLALSLTADQMVSALLDAEPPILYSEYDPTRPFSEASMMGLLTNLADRELVHMINWAKRVPGFVDLTLHDQVHLLECAWLEILMIGLVWRSMEHPGKLLFAPNLLLDRNQGKCVEGMVEIFDMLLATSSRFRMMNLQGEEFVCLKSIILLNSGVYTFLSSTLKSLEEKDHIHRVLDKITDTLIHLMAKAGLTLQQQHQRLAQLLLILSHIRHMSNKGMEHLYSMKCKNVVPLYDAALEMLDAHRLHAPTSRGGASVEETDQSHLATAGSTSSHSLQKYYITGEAEGFPATV [L539A;L540A]
